The target in test [1] is T1, CRIPT (Drosophila melanogaster).
T1 chain: YRQS[pS]T
Description: ITC. (In general: Isothermal titration calorimetry measures the heat released or taken up as one component is titrated into another.)

Test [2] concerns the target T2, CRIPT (Drosophila melanogaster).
T2 chain: GKKIMNTKNYKQSST
Nature of the test: ITC.

Test [3] concerns the target T3, CRIPT (Homo sapiens).
T3 chain: YKQTSV
Description: ITC.

Test [4] deals with T4, CRIPT (Hydra vulgaris).
T4 chain: YRQTSC
Nature of the test: stopped-flow.

In test [5] the target is T5, CRIPT (Octopus bimaculoides).
T5 chain: YRQSSV
Nature of the test: stopped-flow.

Test [6] has as its target T3, CRIPT. Description: stopped-flow.
In test [7] the target is T6, ancestral Eukaryota CRIPT.
T6 chain: YKQSSV
Nature of the test: stopped-flow.

Test [8] has as its target T7, CRIPT (Drosophila melanogaster).
T7 chain: YRQSST
Description: ITC.

The record followed here is article PMC7782867 (2020).

Square brackets hold non-standard residues; d marks the D form. Ends that are not written are not given here. pS = N[C@@H](COP(=O)(O)O)C(=O)O

B1: DLG PDZ3 α3 PDZ3-α3 (protein)
chain: REPRTITIQKGPQGLGFNIVGGEDGQGIYVSFILAGGPADLGSELKRGDQLLSVNNVNLTHATHEEAAQALKTSGGVVTLLAQYRPEEYNRFEARI
Consider B1, for which the results for the Kd with CRIPT [1] and with CRIPT [2] were 40 µM and 34 µM, respectively.

B2: DLG4 PDZ3 PDZ3 (protein)
chain: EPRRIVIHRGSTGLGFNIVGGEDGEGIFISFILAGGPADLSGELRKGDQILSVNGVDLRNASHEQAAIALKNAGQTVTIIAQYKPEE
As for B2, the Kd (usually the equilibrium constant for the complex coming apart) with CRIPT [3] worked out at 0.7 µM; in the test with CRIPT [4], 0.36 µM; in the test with CRIPT [5], 1.24 µM; with CRIPT [6], 0.395 µM; in test [7], 2.18 µM.

B3: DLG PDZ3 PDZ3 (protein)
chain: EPRTITIQKGPQGLGFNIVGGEDGQGIYVSFILAGGPADLGSELKRGDQLLSVNNVNLTHATHEEAAQALKTSGGVVTLLAQYRPEEY
Take B3: the values for the dissociation constant Kd (with CRIPT [8]; in test [7]) were 27 µM and 0.67 µM, respectively.
